From the supplement of paper PMC10899765

Key:
Conditions in all cases: 20 nM; 72 h
MCF10A [1] = assay: percent viability (nuclei count relative to siNT); higher = more viable cells
Experimental: (§1)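 After 72 h, cells were fixed and stained with Hoechst and anti-fibrillarin, and nucleoli per nucleus were counted with CellProfiler. Values are plate-adjusted percent effect for the one-nucleolus and 5+ nucleoli phenotypes, normalised to siNT (0%) and to the positive controls siNOL11 or siKIF11 (100%), as the mean of biological triplicates. Percent viability is the nuclei count relative to siNT.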

MCF10A [2] = assay: 5+ nucleoli phenotype percent effect (relative to siNT 0% and siKIF11 100%); higher = more cells with five or more nucleoli
Experimental: as §1

MCF10A [3] = assay: one-nucleolus phenotype percent effect (relative to siNT 0% and siNOL11 100%); higher = more cells with one nucleolus (ribosome biogenesis inhibition)
Experimental: as §1

| Sequence | percent viability (MCF10A [1]) | 5+ nucleoli phenotype percent effect (MCF10A [2]) | one-nucleolus phenotype percent effect (MCF10A [3]) |
| --- | --- | --- | --- |
| AAAGACCGUGACUACUUUUGCA [hsa-miR-548ao-3p] | 80.6% | -18.1% | 18.2% |
| AAAGACUCUGCAAGAUGCCU [hsa-miR-4432] | 67.3% | -6.99% | -5.81% |
| AAAGAUAGACAAUUGGCUAAAU [hsa-miR-4662a-3p] | 83.7% | 4.11% | -23.7% |
| AAAGAUCUGGAAGUGGGAGACA [hsa-miR-3156-5p] | 43.6% | 45.1% | -18.8% |
| AAAGAUGGACAAUUGGCUAAAU [hsa-miR-4662b] | 38.3% | -25.7% | 49.4% |
| AAAGCGCUUCCCUUCAGAGUG [hsa-miR-518e-3p] | 48.9% | -27.4% | 9.91% |
| AAAGCUGGGUUGAGAAGG [hsa-miR-320e] | 28.6% | 2.27% | 3.44% |
| AAAGGAAAGUGUAUCCUAAAAG [hsa-miR-651-3p] | 139% | 37% | -19.5% |
| AAAGGAUUCUGCUGUCGGUCCCACU [hsa-miR-541-5p] | 51.1% | -28.2% | 12.6% |
| AAAGGUAACUGUGAUUUUUGCU [hsa-miR-548ba] | 146% | 38.2% | -24.2% |
| AAAGGUAAUUGCAGUUUUUCCC [hsa-miR-548ai] | 155% | 16.1% | -23.8% |
| AAAGGUAAUUGCAGUUUUUCCC [hsa-miR-570-5p] | 95.2% | 56.8% | -30.8% |
| AAAGGUAAUUGUGGUUUCUGC [hsa-miR-548ag] | 75.7% | 4.63% | -6.82% |
| AAAGGUCAUUGUAAGGUUAAUGC [hsa-miR-3974] | 39.8% | -42% | 63.7% |
| AAAGGUGCUCAAAUUAGACAU [hsa-miR-4735-3p] | 21.4% | -26.8% | 43% |
| AAAGUAGCUGUACCAUUUGC [hsa-miR-562] | 83.9% | 57% | -28.9% |
| AAAGUCUCGCUCUCUGCCCCUCA [hsa-miR-3184-3p] | 172% | 41.1% | -19.6% |
| AAAGUGCAUCCUUUUAGAGGUU [hsa-miR-519b-3p] | 104% | 75.9% | -24% |
| AAAGUGCAUCCUUUUAGAGUGU [hsa-miR-519a-3p] | 160% | 44.1% | -15.2% |
| AAAGUGCAUCUUUUUAGAGGAU [hsa-miR-519c-3p] | 119% | 110% | -25.5% |

| Sequence | percent viability (MCF10A [1]) | 5+ nucleoli phenotype percent effect (MCF10A [2]) | one-nucleolus phenotype percent effect (MCF10A [3]) |
| --- | --- | --- | --- |
| AAAGUGCUGCGACAUUUGAGCGU [hsa-miR-372] | 64.2% | 52.4% | -16.8% |
| AAAGUGCUUCCCUUUGGACUGU [hsa-miR-520a-3p] | 60.8% | 40.6% | -9.18% |
| AAAGUGCUUCCUUUUAGAGGG [hsa-miR-520b] | 70.9% | 70.5% | -19.2% |
| AAAGUGCUUCCUUUUAGAGGGU [hsa-miR-520c-3p] | 74.6% | 44.6% | -14.7% |
| AAAGUGCUUCCUUUUUGAGGG [hsa-miR-520e] | 84.4% | 57.7% | -14.9% |
| AAAGUGCUUCUCUUUGGUGGGU [hsa-miR-520d-3p] | 74.3% | 58.4% | -16.1% |
| AAAGUUCUGAGACACUCCGACU [hsa-miR-148a-5p] | 89% | 9.44% | -5.53% |
| AAAUAUAUAUAUAUAUGUACGUAU [hsa-miR-1277-5p] | 47.1% | 64.2% | -29.6% |
| AAAUAUGAUGAAACUCACAGCUGAG [hsa-miR-4517] | 24% | 12.3% | 0.779% |
| AAAUCUCUGCAGGCAAAUGUGA [hsa-miR-216b] | 97.3% | 44.2% | -16.2% |
| AAAUGGGUGGUCUGAGGCAA [hsa-miR-4506] | 46.9% | -7.36% | 36.1% |
| AAAUGUCACCUUUUUGAGAGGA [hsa-miR-513b-3p] | 94.2% | -25.5% | -7.38% |
| AAAUUAUUGUACAUCGGAUGAG [hsa-miR-944] | 33.3% | -36.2% | 9.85% |
| AAAUUCAUGUUCAAUCUAAACC [hsa-miR-4760-3p] | 68.6% | 10% | -13.1% |
| AACAACAAAAUCACUAGUCUUCCA [hsa-miR-3529-3p] | 44.1% | 0.722% | 14.9% |
| AACAAUAUCCUGGUGCUGAGUG [hsa-miR-338-5p] | 47.6% | -1.58% | -0.375% |
| AACACACCUAUUCAAGGAUUCA [hsa-miR-362-3p] | 47.7% | 30.7% | -7.86% |
| AACACACCUGGUUAACCUCUUU [hsa-miR-329] | 46.9% | 4.45% | -0.532% |
| AACACUGGCCUUGCUAUCCCCA [hsa-miR-6757-3p] | 52.1% | -35% | 30.1% |
| AACAGGUGACUGGUUAGACAA [hsa-miR-552] | 123% | 36.6% | -33.6% |

| Sequence | percent viability (MCF10A [1]) | 5+ nucleoli phenotype percent effect (MCF10A [2]) | one-nucleolus phenotype percent effect (MCF10A [3]) |
| --- | --- | --- | --- |
| AACAUAGAGGAAAUUCCACGU [hsa-miR-376c-3p] | 99.8% | 55.4% | -18.9% |
| AACAUCACAGCAAGUCUGUGCU [hsa-miR-499a-3p] | 49.3% | -38.3% | -7.15% |
| AACAUCACUGCAAGUCUUAACA [hsa-miR-499b-3p] | 77% | -7.16% | -24.7% |
| AACAUUCAACCUGUCGGUGAGU [hsa-miR-181c-5p] | 79% | 3.6% | 6.56% |
| AACAUUCAACGCUGUCGGUGAGU [hsa-miR-181a-5p] | 76.4% | 0.638% | 2.31% |
| AACAUUCAUUGCUGUCGGUGGGU [hsa-miR-181b-5p] | 93.5% | 10.9% | 1.83% |
| AACAUUCAUUGUUGUCGGUGGGU [hsa-miR-181d] | 91.1% | 12.5% | -6.07% |
| AACCACUUUCUUUGCUCAUCCA [hsa-miR-1255b-2-3p] | 32.1% | -17.2% | 7.09% |
| AACCAGCACCCCAACUUUGGAC [hsa-miR-634] | 4.33% | -57.2% | -35.9% |
| AACCAUCGACCGUUGAGUGGAC [hsa-miR-181c-3p] | 71% | -21.2% | 16.6% |
| AACCCAGUGGGCUAUGGAAAUG [hsa-miR-4482-5p] | 24.6% | -41% | 59.8% |
| AACCCCUAAGGCAACUGGAUGG [hsa-miR-5195-5p] | 53.1% | 2.35% | -2.47% |
| AACCCGUAGAUCCGAACUUGUG [hsa-miR-100-5p] | 45.1% | -0.958% | 9.92% |
| AACCCGUAGAUCCGAUCUUGUG [hsa-miR-99a-5p] | 48.2% | 1.63% | 7.7% |
| AACCUUGGCCCCUCUCCCCAG [hsa-miR-6813-3p] | 75.9% | 67.7% | -35.3% |
| AACGCACUUCCCUUUAGAGUGU [hsa-miR-521] | 57.9% | 28.6% | -9.21% |
| AACGCCAUUAUCACACUAAAUA [hsa-miR-122-3p] | 131% | 35.4% | -17.4% |
| AACGGCAAUGACUUUUGUACCA [hsa-miR-548al] | 58.9% | -4.48% | -4.22% |
| AACGGGAAUGCAGGCUGUAUCU [hsa-miR-4681] | 30.6% | 46% | -21% |
